Experimental data published in patent publication US11370837 (dated 2022).
Positions count from the first letter of the chain named.

T1: human TIGIT on CHO cells (human, UniProt Q495A1)
T1 chain: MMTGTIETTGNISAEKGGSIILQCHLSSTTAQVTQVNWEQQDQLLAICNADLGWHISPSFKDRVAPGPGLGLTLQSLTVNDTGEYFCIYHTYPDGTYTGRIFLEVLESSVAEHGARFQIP

T2: mouse TIGIT-his (mouse, UniProt P86176)
T2 chain: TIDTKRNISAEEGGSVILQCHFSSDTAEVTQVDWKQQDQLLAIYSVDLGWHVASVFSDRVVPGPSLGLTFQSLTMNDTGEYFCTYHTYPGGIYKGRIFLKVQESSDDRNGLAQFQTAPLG

T3: human TIGIT-his (human, UniProt Q495A1)
T3 chain: T1 chain

B1: ADI-30268 (antibody, V domains shown)
VH: QVQLVQSGAEVKKPGASVKVSCKASGYTFGSYYMGWVRQAPGQGLEWMGIIDPSGGRTSYARKFQGRVTMTRDTSTSTVYMELSSLRSEDTAVYYCARARTPSSWPYGMDVWGQGTTVTVSS
VL: DIQMTQSPSSLSASVGDRVTITCRASQSINSYLNWYQQKPGKAPKLLIYAASSLQSGVPSRFSGSGSGTDFTLTISSLQPEDFATYYCQQSLLTPFTFGGGTKVEIK
B2: ADI-30336 (antibody, V domains shown)
VH: QLQLQESGPGLVKPSETLSLTCTVSGGSISSSRYYWGWIRQPPGKGLEWIGSIYYSGSTYYNPSLKSRVTISVDTSKNQFSLKLSSVTAADTAVYYCARDGLYHTPEYFQHWGQGTLVTVSS
VL: EIVLTQSPATLSLSPGERATLSCRASQSVSSYLAWYQQKPGQAPRLLIYDASNRATGIPARFSGSGSGTDFTLTISSLEPEDFAVYYCQQRFAHPYTFGGGTKVEIK
B3: ADI-30286 (antibody, V domains shown)
VH: EVQLLESGGGLVQPGGSLRLSCAASGFTFGPYGMSWVRQAPGKGLEWVSAISGSGASTWYADSVKGRFTISRDNSKNTLYLQMNSLRAEDTAVYYCAKDPGTHYSGYYYIWRYWGQGTLVTVSS
VL: EIVMTQSPATLSVSPGERATLSCRASQSVSSNLAWYQQKPGQAPRLLIYSASTRATGIPARFSGSGSGTEFTLTISSLQSEDFAVYYCQQYVPHPPFTFGGGTKVEIK
B4: ADI-30288 (antibody, V domains shown)
VH: B3 VH with Y60H, H103D, Y104S, S105T
VL: B3 VL
B5: ADI-30278 (antibody, V domains shown)
VH: QVQLVQSGAEVKKPGASVKVSCKASGYTFTEYYMHWVRQAPGQGLEWMGIISPSAGSTKYAQKFQGRVTMTRDTSTSTVYMELSSLRSEDTAVYYCARDHDIRLAGRLADYWGQGTLVTVSS
VL: DIQMTQSPSSVSASVGDRVTITCRASQGISSWLAWYQQKPGKAPKLLISAASSLQSGVPSRFSGSGSGTDFTLTISSLQPEDFATYYCQQAVILPITFGGGTKVEIK
B6: ADI-30272 (antibody, V domains shown)
VH: B5 VH with K59S, R103A, L104A
VL: B5 VL
B7: ADI-30306 (antibody, V domains shown)
VH: QLQLQESGPGLVKPSETLSLTCTVSGGSISSSLYYWGWIRQPPGKGLEWIGSIYYSGSTFYNPSFKSRVTISVDTSKNQFSLKLSSVTAADTAVYYCAREAGRGTTGLLFDYWGQGTLVTVSS
VL: DIQMTQSPSTLSASVGDRVTITCRASQSISSWLAWYQQKPGKAPKLLIYKASSLESGVPSRFSGSGSGTEFTLTISSLQPDDFATYYCQQYGILPRTFGGGTKVEIK

Target: T1, human TIGIT on CHO cells
Experiment: FACS

Binder	EC50 [nM]
B1	0.329
B2	0.629
B3	0.446
B4	0.475
B5	0.409
B6	0.61

Target: T2, mouse TIGIT-his
Experiment: BLI

Binder	binding result
B7	no binding
B2	no binding
B5	no binding

Target: T1, human TIGIT on CHO cells
Experiment: competition

Binder	IC50 [nM]
B6	0.404

target: monkey TIGIT-his (monkey); experiment: BLI
Sequence (Q495A1 other isoform, or with tags, fused parts or gaps): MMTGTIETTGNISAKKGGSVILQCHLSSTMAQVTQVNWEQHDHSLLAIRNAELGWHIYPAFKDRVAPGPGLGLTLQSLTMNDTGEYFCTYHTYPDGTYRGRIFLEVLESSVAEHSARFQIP

Binder	Kd [nM]
B1	62.3
B7	3.44
B2	0.556
B3	10.6
B4	7.19
B5	4.53

Target: T3, human TIGIT-his
Experiment: BLI

Binder	Kd [nM]
B1	3.29
B7	2.7
B2	1.46
B3	1.76
B4	1.31
B5	1.75

Target: T1, human TIGIT on CHO cells
Experiment: competition, CD155 blocking FACS

Binder	IC50 [nM]
B1	0.14
B2	0.122
B3	0.189
B4	0.224
B5	0.116

Target: T1, human TIGIT on CHO cells
Experiment: competition, CD155 blocking FACS
Remark: another data set of the same source

Binder	IC50 [nM]
B1	0.221
B2	0.409
B3	0.296
B4	0.668
B5	0.217

Target: T2, mouse TIGIT-his
Experiment: BLI
Remark: another data set of the same source

Binder	Kd [nM]
B1	46.4
B3	134
B4	5.7

Target: T1, human TIGIT on CHO cells
Experiment: FACS, CHO-expressed antibody

Binder	EC50 [nM]
B1	0.139
B2	0.13
B3	0.176
B4	0.186
B5	0.132
